Substrate: O=[N+]([O-])c1ccc(OP(=O)(O)O)cc1
Test: purified protein
Type: biochemical, Homo sapiens
Details: 25 mM HEPES, 50 mM NaCl, 5 mM DTT, 2.5 mM EDTA, pH 7.2, 25 °C
[1] = 20 min, text (b9) says STS2 has lower Km than STS1, against the table

Protein | Km [1] [mM] | kcat [1] [s⁻¹] | kcat/Km [1] [M⁻¹ s⁻¹] | Km (10 min) [mM] | kcat (10 min) [s⁻¹] | kcat/Km (10 min) [M⁻¹ s⁻¹]
STS2-HP (STS2 histidine phosphatase domain) (Homo sapiens) (protein) SLQALQATVARKSVLVVRHGERVDQIFGKAWLQQCSTPDGKYYRPDLNFPCSLPRRSRGIKDFENDPPLSSCGIFQSRIAGDALLDSGIRISSVFASPALRCVQTAKLILEELKLEKKIKIRVEPGIFEWTKWEAGKTTPTLMSLEELKEANFNIDTDYRPAFPLSALMPAESYQEYMDRCTASMVQIVNTCPQDTGVILIVSHGSTLDSCTRPLLGLPPRECGDFAQLVRKIPSLGMCFCEENKEEGKWELVNPPVKTLTHGANAAFNWRNWISGN | 5.39 ± 0.52 | 0.27 ± 0.005 | 50.5 ± 4.51 | – | – | –
STS1-HP (STS1 histidine phosphatase domain) (Homo sapiens) (protein) GPQKRCLFVCRHGERMDVVFGKYWLSQCFDAKGRYIRTNLNMPHSLPQRSGGFRDYEKDAPITVFGCMQARLVGEALLESNTIIDHVYCSPSLRCVQTAHNILKGLQQENHLKIRVEPGLFEWTKWVAGSTLPAWIPPSELAAANLSVDTTYRPHIPISKLVVSESYDTYISRSFQVTKEIISECKSKGNNILIVAHASSLEACTCQLQGLSPQNSKDFVQMVRKIPYLGFCSCEELGETGIWQLTDPPILPLTHGPTGGFNWRETLLQE | – | – | – | 3.52 ± 0.44 | 67.7 ± 1.31 | 19500 ± 2100

— article PMC9917816, “STS1 and STS2 Phosphatase Inhibitor Baicalein Enhances the Expansion of Hematopoietic and Progenitor Stem Cells and Alleviates 5-Fluorouracil-Induced Myelosuppression” (International Journal of Molecular Sciences, 2023)
